T1: BioR2 (Paracoccus denitrificans PD1222, UniProt A1B662 1-221)
T1 sequence: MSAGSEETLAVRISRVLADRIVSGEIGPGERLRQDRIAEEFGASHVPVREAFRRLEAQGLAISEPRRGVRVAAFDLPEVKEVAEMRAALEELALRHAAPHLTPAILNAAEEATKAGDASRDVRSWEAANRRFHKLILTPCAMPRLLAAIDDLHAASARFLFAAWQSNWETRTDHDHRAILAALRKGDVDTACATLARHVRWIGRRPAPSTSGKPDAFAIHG

B1: bioBFDAZ_at (bioB_at) probe (dsDNA)
DNA 1: CTCTCTTGAGGAGGCAAAAATTATCTATAATTTGCCATTTAACGACCTGC
DNA 2: GCAGGTCGTTAAATGGCAAATTATAGATAATTTTTGCCTCCTCAAGAGAG
B2: bioBFDAGC_pd probe (dsDNA)
DNA 1: GGCGCTGACCGTTTTATAGATACTTCCACATGAGGC
DNA 2: GCCTCATGTGGAAGTATCTATAAAACGGTCAGCGCC
B3: cold bioBFDAGC_pd probe (dsDNA)
DNA 1: B2 DNA 1
DNA 2: B2 DNA 2
B4: bioYB_pd2 probe (dsDNA)
DNA 1: CAAAGCCTTCGTAATTATAGATAGACTCGATACCTATC
DNA 2: GATAGGTATCGAGTCTATCTATAATTACGAAGGCTTTG
B5: bioYB_pd1 probe (dsDNA)
DNA 1: GATTCCCGGATAATTATCTATAAACCTAATTGCCAG
DNA 2: CTGGCAATTAGGTTTATAGATAATTATCCGGGAATC
B6: bioR1_pd probe (dsDNA)
DNA 1: GGTGCAGCATGAATTATCTATAATTCATGAAACACG
DNA 2: CGTGTTTCATGAATTATAGATAATTCATGCTGCACC

What was measured:
[1] = target: T1, BioR2; assay: EMSA; ~0.2 pmol DIG-labeled probe with BioR (10-20 pmol BioR2 in 15 uL, Fig. 6) in Roche binding buffer, 15 min, room temperature; native 7% PAGE; salt and pH of binding buffer not stated (protein in PBS pH 7.4, 10% glycerol); details: protein: recombinant; tags: 6xHis (pET28a); chain copies: 2; label: digoxigenin; blunt
[2] = target: T1, BioR2; assay: EMSA; pimeloyl-ACP (no effect); ~0.2 pmol DIG-labeled probe with BioR (10-20 pmol BioR2 in 15 uL, Fig. 6) in Roche binding buffer, 15 min, room temperature; native 7% PAGE; salt and pH of binding buffer not stated (protein in PBS pH 7.4, 10% glycerol); details: protein: recombinant; tags: 6xHis (pET28a); chain copies: 2; label: digoxigenin; blunt
[3] = target: T1, BioR2; assay: competition; cold probe 10, 20, 50 pmol vs 0.2 pmol DIG-bioBFDAGC; ~0.2 pmol DIG-labeled probe with BioR (10-20 pmol BioR2 in 15 uL, Fig. 6) in Roche binding buffer, 15 min, room temperature; native 7% PAGE; salt and pH of binding buffer not stated (protein in PBS pH 7.4, 10% glycerol); details: protein: recombinant; tags: 6xHis (pET28a); chain copies: 2; blunt

Row | Binder | binding result [1] | further results
1 | B1 | binds | –
2 | B2 | – | binding result [2]: binds
3 | B3 | – | binding result [3]: binds
4 | B4 | binds | –
5 | B5 | binds | –
6 | B6 | binds | –

Reference: paper PMC4554459, “Paracoccus denitrificans possesses two BioR homologs having a role in regulation of biotin metabolism”
